What all share (experiment): cell-based or functional assay
Assay [1] addresses T1, 人单核细胞白血病细胞(THP-1)表面LILRB4 (human, UniProt Q8NHJ6 22-448).
The target in assay [2] is T1, 人单核细胞白血病细胞(THP-1)表面LILRB4. This is another data set of the same source.
The target of assay [3] is T1, 人单核细胞白血病细胞(THP-1)表面LILRB4. The source holds these as a separate data set.

Read-outs that look alike come from different tables or passages of the source.

B1: MA-Ⅰ 鼠源抗LILRB4单克隆抗体 (mouse IgG1 / mouse Ck) (antibody)
heavy: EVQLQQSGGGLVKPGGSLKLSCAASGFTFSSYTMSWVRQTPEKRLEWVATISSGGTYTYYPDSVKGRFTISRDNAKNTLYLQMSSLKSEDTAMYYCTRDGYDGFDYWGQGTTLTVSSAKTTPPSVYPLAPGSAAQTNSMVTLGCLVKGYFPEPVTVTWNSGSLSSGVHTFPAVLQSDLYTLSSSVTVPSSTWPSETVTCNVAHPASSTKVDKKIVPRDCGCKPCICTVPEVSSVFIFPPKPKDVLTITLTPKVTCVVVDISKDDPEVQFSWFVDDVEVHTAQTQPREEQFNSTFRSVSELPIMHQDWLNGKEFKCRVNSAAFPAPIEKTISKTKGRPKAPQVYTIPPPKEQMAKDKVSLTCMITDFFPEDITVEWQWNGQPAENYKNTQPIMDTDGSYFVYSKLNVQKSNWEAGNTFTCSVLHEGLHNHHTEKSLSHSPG
light: DIVMTQTTLSLPVSPGDQASISCRSSQSLAHSNGNTYLHWYLQKPGQSPKLLIYKVSNRFSGVPDRFSGSGSGTDFTLKISRVEAEDLGVYFCSQSTLVPTFGGGTKLEIKADAAPTVSIFPPSSEQLTSGGASVVCFLNNFYPKDINVKWKIDGSERQNGVLNSWTDQDSKDSTYSMSSTLTLTKDEYERHNSYTCEATHKTSTSPIVKSFNRNEC
Consider B1, for which the “IC50, 抑制THP-1分泌ARG1 (arginase activity in supernatant, ApoE 0.5μg/mL)” value (from here on “IC50, 抑制THP-1分泌ARG1”) in assay [1] was 23.9 µg/mL.

B2: 人源化抗体HA-Ⅱ (human IgG1 / human Ck) (antibody, V domains shown)
VH: EVQLVESGGGLVKPGGSLRLSCAASGFTFSSYTMSWVRQAPGKGLEWVATISSGGTYTYYPDSVKGRFTISRDNAKNSLYLQMNSLRAEDTAVYYCARDGYDGFDYWGQGTTVTVSS
VL: DIVMTQTPLSLSVTPGQPASISCRSSQSLAHSNGNTYLHWYLQKPGQSPQLLIYKVSNRFSGVPDRFSGSGSGTDFTLKISRVEAEDVGVYFCSQSTHVPTFGGGTKVEIKR
As for B2, the “IC50, 抑制THP-1分泌ARG1” value in assay [2] was 250 µg/mL. For the same molecule, the “IC50, 生物学活性检测(报告基因), THP-1-NF-κB-Luc cells with ApoE” value (from here on “IC50, 生物学活性检测(报告基因)”) in assay [3] was 2.68 µg/mL.

B3: 人源化抗体HA-Ⅰ (human IgG1 / human Ck) (antibody, V domains shown)
VH: EVQLVESGGGLVKPGGSLRLSCAASGFTFSSYTMSWVRQAPGKGLEWVSTISSGGTYTYYPDSVKGRFTISRDNAKNSLYLQMNSLRAEDTAVYYCARDGYDGFDYWGQGTTVTVSS
VL: DIVMTQTPLSLSVTPGQPASISCRSSQSLAHSNGNTYLHWYLQKPGQSPQLLIYKVSNRFSGVPDRFSGSGSGTDFTLKISRVEAEDVGVYYCSQSTHVPTFGGGTKVEIKR
In the case of B3, the “IC50, 抑制THP-1分泌ARG1” value in assay [2] was 31.2 µg/mL. The “IC50, 生物学活性检测(报告基因)” value in assay [3] is 0.756 µg/mL.

B4: 人源化抗体HA-Ⅲ (human IgG1 / human Ck) (antibody, V domains shown)
VH: EVQLVESGGGLVKPGGSLRLSCAASGFTFSSYTMSWVRQAPGKGLEWVATISSGGTYTYYPDSVKGRFTISRDNAKNSLYLQMNSLRAEDTAVYYCTRDGYDGFDYWGQGTTVTVSS
VL: DIVMTQTPLSLSVTPGQPASISCRSSQSLAHSNGNTYLHWYLQKPGQSPKLLIYKVSNRFSGVPDRFSGSGSGTDFTLKISRVEAEDVGVYFCSQSTHVPTFGGGTKVEIKR
On to B4, for which the “IC50, 抑制THP-1分泌ARG1” value in assay [2] came to 98.5 µg/mL. In assay [3], the “IC50, 生物学活性检测(报告基因)” value was 3.44 µg/mL.

B5: MB-Ⅰ 鼠源抗LILRB4单克隆抗体 (mouse IgG1 / mouse Ck) (antibody)
heavy: QVQLQESGAELVKPGASVKLSCKASGYTFTNYWMHWVKQRPGQGLEWIGEINPSNGRTNYNEKFKTKATLTVDKSSSTAYMQLSSLTSEDSAVYYCARWGQLGLREGYYAVDYWGQGTSVTVSSAKTTPPSVYPLAPGSAAQTNSMVTLGCLVKGYFPEPVTVTWNSGSLSSGVHTFPAVLQSDLYTLSSSVTVPSSTWPSETVTCNVAHPASSTKVDKKIVPRDCGCKPCICTVPEVSSVFIFPPKPKDVLTITLTPKVTCVVVDISKDDPEVQFSWFVDDVEVHTAQTQPREEQFNSTFRSVSELPIMHQDWLNGKEFKCRVNSAAFPAPIEKTISKTKGRPKAPQVYTIPPPKEQMAKDKVSLTCMITDFFPEDITVEWQWNGQPAENYKNTQPIMDTDGSYFVYSKLNVQKSNWEAGNTFTCSVLHEGLHNHHTEKSLSHSPG
light: DIVMTQSPSSLSASLGDRVTISCRASQDISNYLNWYQQKPDGTVKLLIYYTSRLHSGVPSRFSGSGSGTDYSLTISNLEQEDIATYFCQQGNTLPPTFGGGTKLEIKADAAPTVSIFPPSSEQLTSGGASVVCFLNNFYPKDINVKWKIDGSERQNGVLNSWTDQDSKDSTYSMSSTLTLTKDEYERHNSYTCEATHKTSTSPIVKSFNRNEC
Regarding B5, the “IC50, 抑制THP-1分泌ARG1” value in assay [1] amounted to 46 µg/mL.

Values taken from patent CN116173202A (BEIJING DONGFANG BIOTECH CO LTD, dated 2023).
